Among the data in JP2010254663A are HAMA抑制率 values, retold here.

Experiment [1] deals with HAMA血清タイプ1(Roche製、品番:1767275). In words: forward sandwich ELISA with anti-hCEA antibodies and HAMA serum type 1, inhibitor at 1 ug/ml. A general note: ELISA stands for enzyme-linked immunosorbent assay.
In experiment [2] the target is HAMA血清タイプ1(Roche製、品番:1767275). The description is as above. The source holds these as a separate data set.

Like-named read-outs stand apart in the source and are kept apart here.

For マウスIgG(CHEMICON製、品番:PP54) (antibody), the figures for the HAMA抑制率 in experiment [1] and in experiment [2] were 39% and 61%, respectively.

In turn, “Heterophilic Blocking Reagent1(SCANTIBODIES LABORATORY，INC.製、品番:3KC534−075)” had a HAMA抑制率 in experiment [2] of 68%.

Turning to “MAK33−IgG1(Roche製、品番:1200941) (antibody)”, the figures for the HAMA抑制率 in experiment [1] and in experiment [2] were 51% and 69%, respectively.
